Here are results for nine molecules from patent US20230012273A1 (Boehringer Ingelheim, published 2023).

Broadly, the Kd is the constant that tells how readily two partners part at equilibrium. One may read the koff as the first-order rate constant of dissociation. A word on the kon: it is a measure of how fast the partners come together.

The target in experiment [1] is T1, cynoSIRPα (EGM_02252), Extracellular Domain + His-Tag (cynomolgus monkey).
T1 construct: also called CySIRPα EGM_02252; not shown: His-Tag
T1 chain: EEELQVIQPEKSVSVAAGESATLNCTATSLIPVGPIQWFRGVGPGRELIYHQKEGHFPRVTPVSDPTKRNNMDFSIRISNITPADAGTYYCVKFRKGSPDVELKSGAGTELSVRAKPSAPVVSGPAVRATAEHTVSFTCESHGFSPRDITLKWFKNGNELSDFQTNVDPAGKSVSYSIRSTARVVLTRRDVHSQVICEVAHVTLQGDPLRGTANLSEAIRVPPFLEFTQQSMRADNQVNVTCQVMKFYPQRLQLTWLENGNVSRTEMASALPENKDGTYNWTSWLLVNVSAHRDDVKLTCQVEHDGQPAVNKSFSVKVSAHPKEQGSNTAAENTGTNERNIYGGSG
In words: SPR, antibody captured on Protein A/G, ECD-His analyte. The procedure: (§1) The binding kinetics of anti-SIRPα antibodies to various SIRPα analytes are determined by surface plasmon resonance (SPR) using a Biacore 8K+(Cytiva). 1×HBS-EP+(Cytiva) is used as running buffer and for all the dilutions unless stated otherwise. The Series S CM5 sensorchip is activated with a 1:1 mixture of 0.1 M NHS (N-hydroxysuccinimide) and 0.4 M EDC (1-Ethyl-3-(3-dimethylaminopropyl) carbodiimide hydrochloride) for 420 seconds at a flow rate of 10 μl/min and immobilized with Protein A/G (Thermo Scientific, 10 μg/ml in 10 mM acetate pH 4.5) for 420 seconds at a flowrate of 10 μl/min resulting in approximately 3000 RU of Protein A/G on the surface. The sensorchip is then deactivated with 1 M ethanolamine HCl pH 8.5 for 420 seconds at a flowrate of 10 μl/min.
(§2) Antibodies (approximately 1 ug/ml) are captured on the Protein A/G surface for 60 seconds at a flowrate of 10 μl/min resulting in capture levels of approximately 240 RU. Dilutions of each SIRP protein (Extracellular Domain+His-Tag, with the concentrations as indicated) are injected as analytes over the captured antibody for 300 seconds of association at a flowrate of 30 μl/min, followed by a dissociation for 600 seconds.
For orientation: Surface plasmon resonance follows binding to a sensor surface in real time, without labels.

The target in experiment [2] is T2, Human SIRPαV1 (NP_542970.1), Extracellular Domain + His-Tag (human, UniProt P78324 31-373).
T2 construct: also called huSIRPαV1; hSIRPαV1; not shown: His-Tag
T2 sequence (P78324 other isoform, or with tags, fused parts or gaps): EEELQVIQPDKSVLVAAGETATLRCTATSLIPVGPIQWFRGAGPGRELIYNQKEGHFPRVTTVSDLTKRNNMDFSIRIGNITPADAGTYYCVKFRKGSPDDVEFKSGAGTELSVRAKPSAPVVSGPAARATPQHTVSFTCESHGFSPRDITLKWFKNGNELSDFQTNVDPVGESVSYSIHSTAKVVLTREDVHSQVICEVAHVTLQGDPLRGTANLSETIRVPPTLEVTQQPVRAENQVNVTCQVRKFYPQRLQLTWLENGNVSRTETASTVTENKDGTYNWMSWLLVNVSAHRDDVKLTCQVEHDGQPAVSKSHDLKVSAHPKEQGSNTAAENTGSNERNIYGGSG
Briefly: SPR, antibody captured on Protein A/G, ECD-His analyte, 1:1 fit. The procedure:
as §1, §2
(§3) The above procedures are used to measure binding properties of antibodies of the present disclosure. For each analyte used, the highest concentration was as indicated in Example 3 (see Table 36).

For experiment [3], the target named is T3, Human SIRPαV2 (CAA71403.1), Extracellular Domain + His-Tag (human, UniProt P78324 31-373).
T3 construct: also called huSIRPαV2; hSIRPαV2; not shown: His-Tag
T3 sequence (P78324 other isoform, or with tags, fused parts or gaps): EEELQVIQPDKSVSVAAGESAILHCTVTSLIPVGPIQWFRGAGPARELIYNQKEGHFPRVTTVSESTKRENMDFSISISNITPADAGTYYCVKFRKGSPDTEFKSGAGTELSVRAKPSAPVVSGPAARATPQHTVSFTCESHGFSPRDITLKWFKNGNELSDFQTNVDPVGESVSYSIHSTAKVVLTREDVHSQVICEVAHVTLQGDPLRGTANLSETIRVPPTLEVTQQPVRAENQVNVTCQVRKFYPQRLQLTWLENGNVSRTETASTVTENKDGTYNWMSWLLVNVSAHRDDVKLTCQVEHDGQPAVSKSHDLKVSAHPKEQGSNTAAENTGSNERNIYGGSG
The experiment is described as above. The procedure:
as §1, §2, §3

Experiment [4] concerns the target T4, cynoSIRPα (NP_001271679), Extracellular Domain + His-Tag (cynomolgus monkey).
T4 construct: also called CySIRPα NP_001271679; not shown: His-Tag
T4 chain: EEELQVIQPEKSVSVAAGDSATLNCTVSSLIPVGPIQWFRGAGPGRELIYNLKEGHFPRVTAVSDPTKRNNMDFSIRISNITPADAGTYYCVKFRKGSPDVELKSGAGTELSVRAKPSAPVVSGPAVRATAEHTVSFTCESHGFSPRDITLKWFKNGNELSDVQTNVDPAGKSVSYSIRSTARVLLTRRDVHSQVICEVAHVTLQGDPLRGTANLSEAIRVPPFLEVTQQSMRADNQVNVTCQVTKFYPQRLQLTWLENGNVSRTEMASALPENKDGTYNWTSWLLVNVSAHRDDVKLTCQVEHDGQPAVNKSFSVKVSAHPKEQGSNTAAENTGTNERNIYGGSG
The experiment is described as above. The procedure:
as §1, §2, §3

The target of experiment [5] is T5, cynoSIRPα (XP_015313155), Extracellular Domain + His-Tag (cynomolgus monkey).
T5 construct: also called CySIRPα XP_015313155; not shown: His-Tag
T5 chain: T4 chain with A62P, V163F, L185V
The description is as above. The procedure:
as §1, §2, §3

Changes are numbered by the printed parent chain.

B1: Antibody E2 (antibody, human IgG1, kappa, L234A L235A, V domains shown)
VH: QVQLQESGPGLVRPSETLSLTCTVSGGSIRNYYWSWIRQPPGKGLEWIGFIYYNGRTFYNPSLKSRVTISLDMSINQFSLKMTSVTAADTAVYYCARVRAYSGIGLDGTDVWGQGTTVTVSS
VL: DIVMTQSPLSLPVTPGEPASISCKSSQSLLYSNGYAYLDWYLQRPGQSPQLLIYLGSNRASGVPDRFSGSGSGTDFTLKISRVEAEDVGVYYCMQALQTPLTFGGGTKVEIKR
Consider B1, for which the binding result in experiment [1] is “no binding (tested: 1000 nM)”. Moreover, the Kd in experiment [2] stood at 0.91 nM; in experiment [3] it was 0.69 nM; in experiment [4], 20.7 nM; in experiment [5] it was 19.7 nM. In addition, the off-rate (koff) in experiment [2] worked out at 0.000419 s⁻¹; in experiment [3], 0.000367 s⁻¹; in experiment [4], 0.00526 s⁻¹; in experiment [5] it was 0.00512 s⁻¹. For the same molecule, the kon is 459000 M⁻¹ s⁻¹ in experiment [2], 535000 M⁻¹ s⁻¹ in experiment [3], 254000 M⁻¹ s⁻¹ in experiment [4] and 260000 M⁻¹ s⁻¹ in experiment [5].

B2: Antibody E6 (antibody, human IgG1, kappa, L234A L235A, V domains shown)
VH: B1 VH with M73K, I75K
VL: B1 VL
For the molecule B2, in experiment [1], the binding result is on record as “no binding (tested: 1000 nM)”. Moreover, the equilibrium dissociation constant (Kd) in experiment [2] was found to be 1.03 nM; in experiment [3], 0.88 nM; in experiment [4], 41 nM; in experiment [5], 41.6 nM. Moreover, the off-rate constant (koff) in experiment [2] was 0.000386 s⁻¹; in experiment [3], 0.000375 s⁻¹; in experiment [4], 0.00774 s⁻¹; in experiment [5] it was 0.00729 s⁻¹. Moreover, the on-rate constant (kon) in experiment [2] was 374000 M⁻¹ s⁻¹; in experiment [3] it was 429000 M⁻¹ s⁻¹; in experiment [4] it was 189000 M⁻¹ s⁻¹; in experiment [5] it was 175000 M⁻¹ s⁻¹.

B3: Antibody E5 (antibody, human IgG1, kappa, L234A L235A, V domains shown)
VH: B1 VH with M73K, I75K
VL: B1 VL with L55Q, Y91F
On to B3, for which, in experiment [1], the binding result was “no binding (tested: 1000 nM)”. In addition, the Kd in experiment [2] came to 1.02 nM; in experiment [3] it was 0.87 nM; in experiment [4], 38.2 nM; in experiment [5], 37.8 nM. The dissociation rate constant (koff) in experiment [2] turned out to be 0.000336 s⁻¹; in experiment [3] it was 0.000355 s⁻¹; in experiment [4] it was 0.00471 s⁻¹; in experiment [5], 0.00459 s⁻¹. The on-rate constant (kon) in experiment [2] came to 331000 M⁻¹ s⁻¹; in experiment [3], 406000 M⁻¹ s⁻¹; in experiment [4], 123000 M⁻¹ s⁻¹; in experiment [5], 121000 M⁻¹ s⁻¹.

B4: Antibody E9 (antibody, human IgG1, kappa, L234A L235A, V domains shown)
VH: B1 VH
VL: B1 VL with G34A, A36N
Take B4: in experiment [1], the binding result is “no binding (tested: 1000 nM)”. Moreover, the Kd in experiment [2] was determined as 1.22 nM; in experiment [3], 0.94 nM; in experiment [4], 43.7 nM; in experiment [5], 40.8 nM. Further, the koff amounted to 0.000631 s⁻¹ in experiment [2], 0.000548 s⁻¹ in experiment [3], 0.014 s⁻¹ in experiment [4] and 0.0132 s⁻¹ in experiment [5]. Further, the association rate constant (kon) in experiment [2] came out at 518000 M⁻¹ s⁻¹; in experiment [3], 583000 M⁻¹ s⁻¹; in experiment [4], 321000 M⁻¹ s⁻¹; in experiment [5], 324000 M⁻¹ s⁻¹.

B5: Antibody E10 (antibody, human IgG1, kappa, L234A L235A, V domains shown)
VH: B1 VH with M73T, I75K
VL: B1 VL
Regarding B5, the binding result in experiment [1] is “no binding (tested: 1000 nM)”. Moreover, the Kd in experiment [2] was determined as 1.23 nM; in experiment [3] it was 1.2 nM; in experiment [4], 25.2 nM; in experiment [5], 23.7 nM. Also, the koff in experiment [2] is 0.000518 s⁻¹; in experiment [3], 0.000596 s⁻¹; in experiment [4], 0.00545 s⁻¹; in experiment [5], 0.00526 s⁻¹. The on-rate constant (kon) amounted to 422000 M⁻¹ s⁻¹ in experiment [2], 498000 M⁻¹ s⁻¹ in experiment [3], 216000 M⁻¹ s⁻¹ in experiment [4] and 222000 M⁻¹ s⁻¹ in experiment [5].

B6: Antibody E7 (antibody, human IgG1, kappa, L234A L235A, V domains shown)
VH: B1 VH with M73T, I75K
VL: B1 VL with L55Q, Y91F
With B6, in experiment [1], the binding result is listed as “no binding (tested: 1000 nM)”. In addition, the Kd is 1.2 nM in experiment [2], 1.18 nM in experiment [3], 21.9 nM in experiment [4] and 21.2 nM in experiment [5]. Further, the koff is 0.000453 s⁻¹ in experiment [2], 0.000552 s⁻¹ in experiment [3], 0.00346 s⁻¹ in experiment [4] and 0.00337 s⁻¹ in experiment [5]. The kon in experiment [2] amounted to 378000 M⁻¹ s⁻¹; in experiment [3] it was 468000 M⁻¹ s⁻¹; in experiment [4], 158000 M⁻¹ s⁻¹; in experiment [5] it was 159000 M⁻¹ s⁻¹.

B7: Antibody E4 (antibody, human IgG1, kappa, L234A L235A, V domains shown)
VH: B1 VH with I75K
VL: B1 VL
For the molecule B7, the binding result in experiment [1] is reported as “no binding (tested: 1000 nM)”. In addition, the Kd in experiment [2] was 0.99 nM; in experiment [3], 0.82 nM; in experiment [4], 21.1 nM; in experiment [5], 19.8 nM. The dissociation rate constant (koff) amounted to 0.000433 s⁻¹ in experiment [2], 0.000421 s⁻¹ in experiment [3], 0.00468 s⁻¹ in experiment [4] and 0.00451 s⁻¹ in experiment [5]. Also, the on-rate (kon) is 438000 M⁻¹ s⁻¹ in experiment [2], 511000 M⁻¹ s⁻¹ in experiment [3], 222000 M⁻¹ s⁻¹ in experiment [4] and 228000 M⁻¹ s⁻¹ in experiment [5].

B8: Antibody E3 (antibody, human IgG1, kappa, L234A L235A, V domains shown)
VH: B1 VH with I75K
VL: B1 VL with L55Q, Y91F
Turning to B8, the binding result in experiment [1] is recorded as “no binding (tested: 1000 nM)”. In addition, the dissociation constant Kd in experiment [2] is 0.96 nM; in experiment [3], 0.78 nM; in experiment [4], 17.3 nM; in experiment [5], 16.9 nM. For the same molecule, the off-rate constant (koff) in experiment [2] worked out at 0.000371 s⁻¹; in experiment [3], 0.000366 s⁻¹; in experiment [4], 0.00291 s⁻¹; in experiment [5], 0.00288 s⁻¹. The kon in experiment [2] turned out to be 385000 M⁻¹ s⁻¹; in experiment [3], 472000 M⁻¹ s⁻¹; in experiment [4], 168000 M⁻¹ s⁻¹; in experiment [5], 170000 M⁻¹ s⁻¹.

B9: Antibody E8 (antibody, human IgG1, kappa, L234A L235A, V domains shown)
VH: B1 VH with I48M, Y53D, I75M
VL: B1 VL with L55Q, Y91F
For B9, the binding result in experiment [1] is listed as “no binding (tested: 1000 nM)”. For the same molecule, the Kd in experiment [2] was 1.21 nM; in experiment [3] it was 0.54 nM; in experiment [4] it was 17.7 nM; in experiment [5] it was 16.6 nM. Moreover, the off-rate (koff) in experiment [2] was 0.00039 s⁻¹; in experiment [3], 0.000236 s⁻¹; in experiment [4], 0.0036 s⁻¹; in experiment [5] it was 0.00344 s⁻¹. Besides, the kon in experiment [2] worked out at 322000 M⁻¹ s⁻¹; in experiment [3], 435000 M⁻¹ s⁻¹; in experiment [4], 204000 M⁻¹ s⁻¹; in experiment [5], 207000 M⁻¹ s⁻¹.
